Test results published in FireProtDB (doi:10.1021/bi201253b).

Conditions: Moniliophthora perniciosa, pH 7.2, Thermal, CD, sodium phosphate buffer 4mM, whole UniProt chain shown

B1: wild type, A5H7H0 (protein)
chain: MQLQNFLSIVLLVVSGAIAGTVMDHDKIAKLPASGSPLETKFQPQLHIGNGCHSYPAVDAQGNWSGGLKPTGAPSAACKDTSKAQTYVRSATFQGKTALVYAWYMPKDEISTGIGHRHDWEGAVVFLNSDTQQIDGVAASAHGKWRKYPNPGGANIDDTHVKLQYSAEPVINSHALDLTDKGGDLPTLASWEGMGADARAAINERSHWGDANPPIADSLIGSSLSGAWMW
- Tm (EDTA CaCl2 62.5 micro M 120 micro M): 41.6 °C
- Tm (EDTA CaCl2 with ZnCl2 62.5 micro M 120 micro M 120 micro M): 40 °C
- Tm (EDTA ZnCl2 62.5 micro M 120 micro M): 41.2 °C
